{"source": "patent US20020168363A1", "about": "“Integrin/adhesion antagonists” (Amgen Inc., priority 2000, published 2002)", "target": "GPIIb/IIIa (UniProt P08514)", "test": "inhibition of hu Fibrinogen-Ru binding"}
{"substance": "Fibrinogen", "values": [{"measurement": "IC50", "value": 10.5, "unit": "nM"}, {"measurement": "Ki", "value": 5.26, "unit": "nM"}]}
